From publication PMC2933787

Key:
Assay in all cases: EMSA
[1] = target: T1, DmTHAP (P element transposase THAP domain) (Drosophila melanogaster, UniProt Q7M3K2 1-77)
T1 sequence: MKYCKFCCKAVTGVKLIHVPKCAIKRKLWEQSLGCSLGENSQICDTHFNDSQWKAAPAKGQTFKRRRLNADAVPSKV

DmTHAP R66A = target: T2, DmTHAP R66A (Drosophila melanogaster, UniProt Q7M3K2 1-77, R66A)
T2 sequence: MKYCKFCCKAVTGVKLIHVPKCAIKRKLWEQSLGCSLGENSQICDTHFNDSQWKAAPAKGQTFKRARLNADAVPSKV

DmTHAP dY2,K3 = target: T3, DmTHAP dY2,K3 (Drosophila melanogaster, UniProt Q7M3K2 1-77, del2-3)
T3 sequence: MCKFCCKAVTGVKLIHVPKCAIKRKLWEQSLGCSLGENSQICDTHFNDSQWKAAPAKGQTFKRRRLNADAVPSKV

DmTHAP H18A = target: T4, DmTHAP H18A (Drosophila melanogaster, UniProt Q7M3K2 1-77, H18A)
T4 sequence: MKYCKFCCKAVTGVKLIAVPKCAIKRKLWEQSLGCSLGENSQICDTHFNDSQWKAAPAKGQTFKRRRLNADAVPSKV

DmTHAP H18A Q42A = target: T5, DmTHAP H18A Q42A (Drosophila melanogaster, UniProt Q7M3K2 1-77, H18A;Q42A)
T5 sequence: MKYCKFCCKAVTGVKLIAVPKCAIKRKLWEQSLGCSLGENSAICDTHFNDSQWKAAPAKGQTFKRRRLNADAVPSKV

DmTHAP Q42A = target: T6, DmTHAP Q42A (Drosophila melanogaster, UniProt Q7M3K2 1-77, Q42A)
T6 sequence: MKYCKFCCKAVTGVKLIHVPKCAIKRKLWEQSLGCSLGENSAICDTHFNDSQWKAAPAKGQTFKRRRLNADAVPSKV

DmTHAP R65A R67A = target: T7, DmTHAP R65A R67A (Drosophila melanogaster, UniProt Q7M3K2 1-77, R65A;R67A)
T7 sequence: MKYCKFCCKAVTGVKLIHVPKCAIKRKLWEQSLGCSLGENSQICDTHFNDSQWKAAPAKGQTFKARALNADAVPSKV

DmTHAP R65A = target: T8, DmTHAP R65A (Drosophila melanogaster, UniProt Q7M3K2 1-77, R65A)
T8 sequence: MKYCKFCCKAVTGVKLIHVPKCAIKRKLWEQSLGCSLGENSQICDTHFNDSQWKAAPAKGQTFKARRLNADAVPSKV

DmTHAP R67A = target: T9, DmTHAP R67A (Drosophila melanogaster, UniProt Q7M3K2 1-77, R67A)
T9 sequence: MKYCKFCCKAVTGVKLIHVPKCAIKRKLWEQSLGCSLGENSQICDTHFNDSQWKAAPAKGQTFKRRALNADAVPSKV

B1: 15mer duplex with transposase site (dsDNA)
DNA 1: GAGGTTAAGTGGATGT
DNA 2: TACATCCACTTAAC
With B1 the binding signal [1] was 1 fold reduction in affinity vs WT (reference), the binding result (DmTHAP R66A) was “no binding” and the binding signal (DmTHAP dY2,K3) was ~3 fold reduction in affinity vs WT. The binding signal (DmTHAP H18A) was ~12 fold reduction in affinity vs WT, the binding signal (DmTHAP H18A Q42A) was ~20 fold reduction in affinity vs WT and the binding signal (DmTHAP Q42A) was ~15 fold reduction in affinity vs WT. For the same binder, the binding signal (DmTHAP R65A R67A) was ~42 fold reduction in affinity vs WT, the binding signal (DmTHAP R65A) was ~21 fold reduction in affinity vs WT and the binding signal (DmTHAP R67A) was ~17 fold reduction in affinity vs WT.
